Positions count from the first letter of the chain named. Each block holds one molecule with its values, some of them ahead of it. Where a SMILES comes first, the peptide text is derived from it.
Key:
[1] = target: T1, MFSD1–GLMP oocytes (MFSD1L11A/L12A-EmGFP + GLMPY400A-mKate2) (Mus musculus, UniProt Q9DC37, L11A/L12A); experiment: TEVC competition with Lys–Ala current in oocytes; assay type: cell-based
T1 construct: heterodimer at plasma membrane of Xenopus laevis oocytes; lysosomal sorting mutants; EmGFP and mKate2 fusions; with Glycosylated lysosomal membrane protein
T1 sequence (Q9DC37 1-464 L11A/L12A): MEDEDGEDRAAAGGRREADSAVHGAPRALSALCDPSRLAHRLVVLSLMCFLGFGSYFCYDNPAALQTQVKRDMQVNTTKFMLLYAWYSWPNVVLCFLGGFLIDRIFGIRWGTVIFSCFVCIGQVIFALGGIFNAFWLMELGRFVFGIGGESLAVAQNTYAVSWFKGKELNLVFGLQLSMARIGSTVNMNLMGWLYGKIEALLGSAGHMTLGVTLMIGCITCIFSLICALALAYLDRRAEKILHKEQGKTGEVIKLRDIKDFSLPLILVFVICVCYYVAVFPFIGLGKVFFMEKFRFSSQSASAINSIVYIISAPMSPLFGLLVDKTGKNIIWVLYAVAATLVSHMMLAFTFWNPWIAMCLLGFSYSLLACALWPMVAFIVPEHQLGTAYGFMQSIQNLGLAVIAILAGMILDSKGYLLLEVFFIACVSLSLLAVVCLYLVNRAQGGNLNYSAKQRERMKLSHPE
T1 sequence (Q9JHJ3 36-404 Y400A partner): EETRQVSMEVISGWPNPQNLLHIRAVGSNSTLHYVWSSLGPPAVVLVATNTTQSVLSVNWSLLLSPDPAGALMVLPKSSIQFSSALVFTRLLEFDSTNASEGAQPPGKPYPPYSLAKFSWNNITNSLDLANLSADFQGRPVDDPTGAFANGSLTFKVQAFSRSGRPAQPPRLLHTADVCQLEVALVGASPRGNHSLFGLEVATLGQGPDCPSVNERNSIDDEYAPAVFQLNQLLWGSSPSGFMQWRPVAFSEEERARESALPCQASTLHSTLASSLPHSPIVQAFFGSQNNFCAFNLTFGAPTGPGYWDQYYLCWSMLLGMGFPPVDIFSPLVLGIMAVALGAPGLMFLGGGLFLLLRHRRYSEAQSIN

[2] = target: T2, MFSD1 (MFSD1WT, mmMFSD1, MFSD1-strep) (Mus musculus, UniProt Q9DC37); experiment: nanoDSF thermal shift titration; assay type: binding
T2 construct: full length; N-terminal Twin-Strep-tag + HRV 3C site; Expi293F; purified in DDM/CHS; liposomes POPE:POPG:CHS for transport
T2 sequence (Q9DC37 1-464): T1 sequence (Q9DC37 1-464 L11A/L12A) with A11L, A12L

[3] = target: GLMP + MFSD1 co-complex (co-expressed MFSD1-strep and GLMP-Ct-His-GFP, purified) (mouse) (UniProt Q9DC37)
[4] = target: MFSD1-strep (mouse major facilitator superfamily domain containing 1 protein with N-terminal Twin-Strep-tag) (mouse) (UniProt Q9DC37); experiment: nanoDSF thermal shift; protein 0.2 mg/ml in 100 mM HEPES pH 7.5, 150 mM NaCl, 0.03% DDM, 0.003% CHS; 5 mM ligand, 30 min at room temperature; 20 to 95 °C at 1 °C/min (Prometheus NT.48)
Ala-His = experiment: nanoDSF thermal stability assay; details: 5 mM peptide, n = 3, apo Tm of WT est. 40 °C, parent: est. 40, read off a plot
Ala–Ala dipeptide = experiment: nanoDSF thermal stability assay; details: 5 mM peptide, n = 3, apo Tm of WT est. 40 °C, parent: est. 41, read off a plot
Anserine = experiment: nanoDSF thermal stability assay; details: 5 mM peptide, n = 3, apo Tm of WT est. 40 °C, parent: est. 40, read off a plot
Arg–Pro dipeptide = experiment: nanoDSF thermal stability assay; details: 5 mM peptide, n = 3, apo Tm of WT est. 40 °C, parent: est. 42, read off a plot
His-Ser dipeptide = experiment: nanoDSF thermal stability assay; details: 5 mM peptide, n = 3, apo Tm of WT est. 40 °C, parent: est. 40, read off a plot
His–Ala dipeptide = experiment: nanoDSF thermal stability assay; details: 5 mM peptide, n = 3, apo Tm of WT est. 40 °C, parent: est. 41, read off a plot
Leu–Ala dipeptide = experiment: nanoDSF thermal stability assay; details: 5 mM peptide, n = 3, apo Tm of WT est. 40 °C, parent: est. 47, read off a plot
Lys–Val dipeptide = experiment: nanoDSF thermal stability assay; details: 5 mM peptide, n = 3, apo Tm of WT est. 40 °C, parent: est. 46, read off a plot
Pro–Arg dipeptide = experiment: nanoDSF thermal stability assay; details: 5 mM peptide, n = 3, apo Tm of WT est. 40 °C, parent: est. 49, read off a plot
[5] = apo Tm of this mutant est. 36 °C
[6] = apo Tm of this mutant est. 37 °C
[7] = apo Tm of this mutant est. 42 °C
[8] = apo Tm of this mutant est. 47 °C
[9] = apo Tm of this mutant est. 39 °C

MFSD1-strep (mouse major facilitator superfamily domain containing 1 protein with N-terminal Twin-Strep-tag) (from UniProt Q9DC37) Q176K, sequence (Q9DC37 whole entry Q176K, looked up, the tested form may be a part): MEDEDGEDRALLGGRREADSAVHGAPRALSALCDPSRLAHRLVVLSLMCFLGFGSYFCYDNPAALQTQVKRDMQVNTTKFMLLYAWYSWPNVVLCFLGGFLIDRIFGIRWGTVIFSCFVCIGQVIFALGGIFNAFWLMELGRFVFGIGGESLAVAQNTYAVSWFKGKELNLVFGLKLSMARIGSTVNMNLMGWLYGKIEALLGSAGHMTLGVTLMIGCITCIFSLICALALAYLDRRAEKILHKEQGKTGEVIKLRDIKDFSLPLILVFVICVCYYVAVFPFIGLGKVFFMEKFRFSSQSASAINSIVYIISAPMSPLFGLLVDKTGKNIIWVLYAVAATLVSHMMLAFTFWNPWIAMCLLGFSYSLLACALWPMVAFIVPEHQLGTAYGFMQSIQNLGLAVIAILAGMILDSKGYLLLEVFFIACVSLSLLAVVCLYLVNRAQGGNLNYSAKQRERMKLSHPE
MFSD1-strep (mouse major facilitator superfamily domain containing 1 protein with N-terminal Twin-Strep-tag) (from UniProt Q9DC37) Y56A, sequence (Q9DC37 whole entry Y56A, looked up, the tested form may be a part): as the sequence (Q9DC37 whole entry Q176K, looked up, the tested form may be a part) above, with Y56A, K176Q counted along it
MFSD1-strep (mouse major facilitator superfamily domain containing 1 protein with N-terminal Twin-Strep-tag) (from UniProt Q9DC37) W373A, sequence (Q9DC37 whole entry W373A, looked up, the tested form may be a part): as the sequence (Q9DC37 whole entry Q176K, looked up, the tested form may be a part) above, with K176Q, W373A counted along it
MFSD1-strep (mouse major facilitator superfamily domain containing 1 protein with N-terminal Twin-Strep-tag) (from UniProt Q9DC37) Q176A, sequence (Q9DC37 whole entry Q176A, looked up, the tested form may be a part): as the sequence (Q9DC37 whole entry Q176K, looked up, the tested form may be a part) above, with K176A counted along it
MFSD1-strep (mouse major facilitator superfamily domain containing 1 protein with N-terminal Twin-Strep-tag) (from UniProt Q9DC37) Q176E, sequence (Q9DC37 whole entry Q176E, looked up, the tested form may be a part): as the sequence (Q9DC37 whole entry Q176K, looked up, the tested form may be a part) above, with K176E counted along it

Molecule: C[C@H](N)C(=O)N[C@@H](C)C(=O)O [Ala–Ala] (H-Ala-Ala-OH)
- inhibition at 20000 µM ([1]; read-out: % inhibition at 20 mM): 66 ± 3%

Molecule: NCCCC[C@H](NC(=O)[C@@H](N)Cc1c[nH]cn1)C(=O)O [His–Lys] (H-His-Lys-OH)
- Kd [2]: 0.765 ± 0.136 mM

Molecule: N=C(N)NCCC[C@H](NC(=O)[C@@H]1CCCN1)C(=O)O [Pro–Arg] (H-Pro-Arg-OH)
- Kd [2]: 0.318 ± 0.0667 mM

Molecule: Glu–Ser dipeptide
- inhibition of the current evoked by 3 mM Lys–Ala in MFSD1–GLMP oocytes (TEVC, pH 5.0) by 10 mM Glu–Ser applied simultaneously [3]: 26%

Molecule: His–Lys dipeptide
- ΔTm at 5 mM ligand [4]: 12 °C

Molecule: Lys–Ala dipeptide
- KM of the Lys–Ala-evoked inward current in MFSD1–GLMP oocytes (TEVC, −40 mV, pH 5.0) [3]: 2.6 mM

Molecule: MFSD1-strep (mouse major facilitator superfamily domain containing 1 protein with N-terminal Twin-Strep-tag) (from UniProt Q9DC37) Q176A
- other: Tm (Ala-His; [5]): 36 °C
- other: Tm (Ala–Ala dipeptide; [5]): 40 °C
- other: Tm (Anserine; [5]): 36 °C
- other: Tm (Arg–Pro dipeptide; [5]): 48 °C
- other: Tm (His-Ser dipeptide; [5]): 37 °C
- other: Tm (His–Ala dipeptide; [5]): 42 °C
- other: Tm (Leu–Ala dipeptide; [5]): 48 °C
- other: Tm (Lys–Val dipeptide; [5]): 49 °C
- other: Tm (Pro–Arg dipeptide; [5]): 59 °C

Molecule: MFSD1-strep (mouse major facilitator superfamily domain containing 1 protein with N-terminal Twin-Strep-tag) (from UniProt Q9DC37) Q176K
- other: Tm (Ala-His; [7]): 43 °C
- other: Tm (Ala–Ala dipeptide; [7]): 46 °C
- other: Tm (Anserine; [7]): 43 °C
- other: Tm (Arg–Pro dipeptide; [7]): 42 °C
- other: Tm (His-Ser dipeptide; [7]): 45 °C
- other: Tm (His–Ala dipeptide; [7]): 49 °C
- other: Tm (Leu–Ala dipeptide; [7]): 53 °C
- other: Tm (Lys–Val dipeptide; [7]): 43 °C
- other: Tm (Pro–Arg dipeptide; [7]): 42 °C

Molecule: MFSD1-strep (mouse major facilitator superfamily domain containing 1 protein with N-terminal Twin-Strep-tag) (from UniProt Q9DC37) W373A
- other: Tm (Ala-His; [8]): 47 °C
- other: Tm (Ala–Ala dipeptide; [8]): 47 °C
- other: Tm (Anserine; [8]): 47 °C
- other: Tm (Arg–Pro dipeptide; [8]): 46 °C
- other: Tm (His-Ser dipeptide; [8]): 47 °C
- other: Tm (His–Ala dipeptide; [8]): 47 °C
- other: Tm (Leu–Ala dipeptide; [8]): 47 °C
- other: Tm (Lys–Val dipeptide; [8]): 47 °C
- other: Tm (Pro–Arg dipeptide; [8]): 47 °C

Molecule: Pro–Arg dipeptide
- ΔTm at 5 mM ligand [4]: 12.1 °C

More lines, now with the values ahead:

- inhibition at 10000 µM ([1]; read-out: % inhibition at 10 mM): 26 ± 3%
Molecule: N[C@@H](CCC(=O)O)C(=O)N[C@@H](CO)C(=O)O [Glu–Ser] (H-Glu-Ser-OH)

- Kd [2]: 2.2 ± 0.42 mM
Molecule: CC(C)C[C@H](N)C(=O)N[C@@H](C)C(=O)O [Leu–Ala] (H-Leu-Ala-OH)

- Kd [2]: 4.3 ± 0.6 mM
Molecule: CC(C)[C@H](NC(=O)[C@@H](N)CCCCN)C(=O)O [Lys–Val] (H-Lys-Val-OH)

- ΔTm at 5 mM ligand [4]: 14 °C
Molecule: Leu–Leu dipeptide

- other: Tm (Ala-His; [6]): 40 °C
- other: Tm (Ala–Ala dipeptide; [6]): 42 °C
- other: Tm (Anserine; [6]): 40 °C
- other: Tm (Arg–Pro dipeptide; [6]): 48 °C
- other: Tm (His-Ser dipeptide; [6]): 40 °C
- other: Tm (His–Ala dipeptide; [6]): 44 °C
- other: Tm (Leu–Ala dipeptide; [6]): 52 °C
- other: Tm (Lys–Val dipeptide; [6]): 49 °C
- other: Tm (Pro–Arg dipeptide; [6]): 51 °C
Molecule: MFSD1-strep (mouse major facilitator superfamily domain containing 1 protein with N-terminal Twin-Strep-tag) (from UniProt Q9DC37) Q176E

- other: Tm (Ala-His; [9]): 42 °C
- other: Tm (Ala–Ala dipeptide; [9]): 41 °C
- other: Tm (Anserine; [9]): 42 °C
- other: Tm (Arg–Pro dipeptide; [9]): 42 °C
- other: Tm (His-Ser dipeptide; [9]): 42 °C
- other: Tm (His–Ala dipeptide; [9]): 42 °C
- other: Tm (Leu–Ala dipeptide; [9]): 45 °C
- other: Tm (Lys–Val dipeptide; [9]): 45 °C
- other: Tm (Pro–Arg dipeptide; [9]): 44 °C
Molecule: MFSD1-strep (mouse major facilitator superfamily domain containing 1 protein with N-terminal Twin-Strep-tag) (from UniProt Q9DC37) Y56A
